In patent publication US11434289B2, “Anti-GPR20 antibody and anti-GPR20 antibody-drug conjugate” (DAIICHI SANKYO COMPANY, LIMITED, priority 2017, dated 2022):

How the values were obtained:
[1] = biological target: T1, human GPR20 with EC2 substituted with a mouse GPR20-derived sequence (Homo sapiens, UniProt Q99678, Y113F); experiment: Cell-ELISA binding to human/mouse chimeric GPR20 (EC2 substituted); settings: hGPR20_mECD2, FIG. 22
T1 construct: expressed in transfected cells; host or cells: 293α cells, transient
Method: (§1) The culture supernatant of the 293a cells transfected with the expression vector prepared in Example 1)-4-1 was removed, and the culture supernatant from each hybridoma was then added to the 293a cells transfected either with pcDNA3.1-hGPR20 or pcDNA3.1. The cells were left standing at 4° C. for 1 hour. The cells in the wells were washed once with PBS (+) supplemented with 5% FBS, and thereafter, Anti-Rat IgG-Peroxidase antibody produced in rabbit (Sigma-Aldrich Co. LLC) that had been 500-fold diluted with PBS (+) supplemented with 5% FBS was added to the wells. The cells were left standing at 4° C. for 1 hour. The cells in the wells were washed three times with PBS (+) supplemented with 5% FBS, and thereafter, OPD chromogenic solution (which had been prepared by dissolving o-phenylenediamine dihydrochloride (Wako Pure Chemical Industries, Ltd.) and H2O2 in an OPD solution (0.05 M trisodium citrate, 0.1 M disodium hydrogen phosphate 12-water; pH 4.5), so that the substances became 0.4 mg/ml and 0.6% (v/v), respectively) was added in an amount of 100 μL/well to the wells. A coloring reaction was carried out with occasional stirring. Thereafter, 1 M HCl was added to the plate (100 μL/well) to terminate the coloring reaction, followed by measurement of the absorbance at 490 nm using a plate reader (ENVISION: PerkinElmer, Inc.).
In the construction of expression vectors given below, using the full-length human GPR20 expression vector pcDNA3.1-hGPR20 produced in Example 1 as a template, each PCR reaction was carried out with the primer set given below. In this reaction, KOD FX DNA polymerase (Toyobo Co., Ltd.) was used, and the reaction was carried out at 15 cycles or 10 cycles each involving 98° C. for 10 seconds, 58° C. for 30 seconds, and 68° C. for 7 minutes. Thereafter, the obtained PCR product was treated with the restriction enzyme Dpnl. […]

human GPR20 [2] = biological target: T2, human GPR20 (Homo sapiens, UniProt Q99678); experiment: Analysis of GPR20-binding site of anti-GPR20 antibodies by Cell-ELISA; settings: EC1 = positions 1 to 48, EC2 = positions 108 to 125 of human GPR20
T2 construct: expressed in transfected cells; host or cells: 293T cells, transient, Lipofectamine 2000
Method: as §1
Binding sites of anti-human GPR20 antibodies were classified by measuring their binding activity against mouse GPR20, N-terminally FLAG-tagged human GPR20, and human/mouse chimeric GPR20 in which each of four extracellular regions (EC1, EC2, EC3, and EC4) of human GPR20 was substituted with a mouse GPR20-derived sequence, respectively, by Cell-ELISA. FIG. 21 is a diagram of the comparison between the amino acid sequences of human GPR20 (NP_005284) and mouse GPR20 (NP_775541). The four extracellular regions EC1 to EC4 are represented by positions in the amino acid sequence of human GPR20. EC1 corresponds to positions 1 to 48, EC2 corresponds to positions 108 to 125, EC3 corresponds to positions 190 to 196, and EC4 corresponds to positions 260 to 275. […]

human GPR20 [3] = biological target: T2, human GPR20; experiment: Human GPR20-binding antibody screening by flow cytometry (hybridoma culture supernatants, transfected 293T cells); settings: hybridoma culture supernatant; 293T cells transfected with pcDNA3.1-hGPR20 vs control pcDNA3.1; FIG. 18
Method: 293T cells were seeded in a 225-cm^2 flask (Sumitomo Bakelite Co., Ltd.) at 5×10^4 cells/cm^2, and the cells were then cultured overnight under conditions of 37° C. and 5% CO2 in DMEM medium supplemented with 10% FBS. pcDNA3.1-hGPR20 or pcDNA3.1 as a negative control was introduced into the 293T cells using Lipofectamine 2000, and the cells were further cultured overnight under conditions of 37° C. and 5% CO2. The 293T cells transfected with each expression vector were treated with TrypLE Express (Life Technologies Corp.), and the cells were washed with DMEM supplemented with 10% FBS, and then suspended in PBS supplemented with 5% FBS. The obtained cell suspension was used in flow cytometry analysis.
The binding specificity to human GPR20 of an antibody produced from hybridomas that had been determined to be positive by Cell-ELISA in Example 1)-4-2 was further confirmed by flow cytometry. The suspension of the transiently expressing 293T cells prepared in Example 1)-5-1 was centrifuged, and a supernatant was then removed. Thereafter, the cells were suspended by the addition of the culture supernatant from each hybridoma. The cells were left standing at 4° C. for 1 hour. The cells were washed twice with PBS supplemented with 5% FBS, and thereafter, the cells were suspended by the addition of Anti-Rat IgG FITC conjugate (Sigma-Aldrich Co. LLC) that had been 500-fold diluted with PBS supplemented with 5% FBS. […] The data was analyzed using Flowjo (Tree Star, Inc.). After dead cells were removed from analysis by gating out 7-aminoactinomycin D-positive cells, a histogram of the FITC fluorescence intensity of live cells was generated. Hybridomas producing human GPR20-binding antibodies (178 clones) were selected based on results where the histogram for the antibody shifted to the strong fluorescence intensity side in the 293T cells transfected with pcDNA3.1-hGPR20 compared with the 293T cells transfected with the control pcDNA3.1. […] The abscissa of FIG. 18 depicts clone No., and the ordinate thereof depicts the amount of the antibody bound based on MFI (mean fluorescence intensity).

T2 sequence (Q99678 whole entry): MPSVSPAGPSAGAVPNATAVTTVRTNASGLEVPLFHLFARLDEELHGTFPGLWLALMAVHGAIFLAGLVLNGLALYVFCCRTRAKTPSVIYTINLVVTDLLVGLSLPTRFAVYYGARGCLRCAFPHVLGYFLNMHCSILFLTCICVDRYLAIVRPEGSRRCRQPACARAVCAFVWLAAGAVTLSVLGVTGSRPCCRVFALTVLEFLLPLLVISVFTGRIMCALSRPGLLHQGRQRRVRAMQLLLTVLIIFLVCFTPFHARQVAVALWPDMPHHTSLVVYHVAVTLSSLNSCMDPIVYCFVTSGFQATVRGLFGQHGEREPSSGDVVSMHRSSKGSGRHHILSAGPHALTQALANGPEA
T1 sequence (Q99678 whole entry Y113F): as the sequence (Q99678 whole entry) above, with Y113F counted along it

Molecule	binding activity after substituting EC2 of human GPR20 with that of mouse-derived GPR20 [1]	GPR20 extracellular region recognized (human GPR20 [2])	binding to human GPR20 (amount of the antibody bound based on MFI) (human GPR20 [3])
04-079: rat anti-human GPR20 antibody; heavy chain SEQ ID NO: 12, light chain SEQ ID NO: 17 (antibody, listed as Rattus norvegicus, SIGNAL (1)..(19); SIGNAL (1)..(20)) heavy: MEWNWVFLFLLSVTAVVHSQVQLQQSGAELAKPGSSVKISCKASGYTFTSYYITWIKQTTGQGLKYIGYINPGSGHTNYNEKFKGKATLTVDKSSSTAFMQLSSLTPDDSAVYYCARGAGGFLRIISKFDYWGQGVMVTVSSAQTTAPSVYPLAPGCGDTTSSTVTLGCLVKGYFPEPVTVTWNSGALSSDVHTFPAVLQSGLYTLTSSVTSSTWPSQTVTCNVAHPASSTKVDKKVERRNGGIGHKCPTCPTCHKCPVPELLGGPSVFIFPPKPKDILLISQNAKVTCVVVDVSEEEPDVQFSWFVNNVEVHTAQTQPREEQYNSTFRVVSALPIQHQDWMSGKEFKCKVNNKALPSPIEKTISKPKGLVRKPQVYVMGPPTEQLTEQTVSLTCLTSGFLPNDIGVEWTSNGHIEKNYKNTEPVMDSDGSFFMYSKLNVERSRWDSRAPFVCSVVHEGLHNHHVEKSISRPPGK light: METDRLLLWVLLLWVPGSTGDTVLTQSPALAVSLGQRVTISCRASKSVSTYMHWYQQRSGQQPKLLIYSASNLESGVPSRFSGSGSGTDFTLTIDPVKADDITNYYCQQSNELPYTFGAGTKLELKRADAAPTVSIFPPSTEQLATGGASVVCLMNNFYPRDISVKWKIDGTERRDGVLDSVTDQDSKDSTYSMSSTLSLTKADYESHNLYTCEVVHKTSSSPVVKSFNRNEC	lost binding activity	EC1, EC2	specifically binding to human GPR20
04-126: rat anti-human GPR20 antibody; heavy chain SEQ ID NO: 22, light chain SEQ ID NO: 27 (antibody, listed as Rattus norvegicus, SIGNAL (1)..(19); SIGNAL (1)..(20)) heavy: MEWNWVFLFLLSVTAEVHSQVQLRQSGAELAKPGSSVKISCKASGYTFTSYYIIWMKQTAGQGLQYVGYINPGSGHTNYNEKFKGKATLTVDKSSSTAFMQLSSLTPDDSAVYYCARGTGGFLRIISKFDYWGQGVMVTVSSAQTTAPSVYPLAPGCGDTTSSTVTLGCLVKGYFPEPVTVTWNSGALSSDVHTFPAVLQSGLYTLTSSVTSSTWPSQTVTCNVAHPASSTKVDKKVERRNGGIGHKCPTCPTCHKCPVPELLGGPSVFIFPPKPKDILLISQNAKVTCVVVDVSEEEPDVQFSWFVNNVEVHTAQTQPREEQYNSTFRVVSALPIQHQDWMSGKEFKCKVNNKALPSPIEKTISKPKGLVRKPQVYVMGPPTEQLTEQTVSLTCLTSGFLPNDIGVEWTSNGHIEKNYKNTEPVMDSDGSFFMYSKLNVERSRWDSRAPFVCSVVHEGLHNHHVEKSISRPPGK light: METDRLLLWVLLLWVPGSTGDTVLTQSPALAVSLGQRVTISCRASKSVSTYMHWYQQRSGQQPKLLIYSASTLESGVPSRFSGSGSGTDFTLTIDPVEADDIANYYCQQSNELPYTFGAGTKLELKRADAAPTVSIFPPSTEQLATGGASVVCLMNNFYPRDISVKWKIDGTERRDGVLDSVTDQDSKDSTYSMSSTLSLTKADYESHNLYTCEVVHKTSSSPVVKSFNRNEC	lost binding activity	EC1, EC2	specifically binding to human GPR20
04-046: rat anti-human GPR20 antibody; heavy chain SEQ ID NO: 2, light chain SEQ ID NO: 7 (antibody, listed as Rattus norvegicus, SIGNAL (1)..(19); SIGNAL (1)..(20)) heavy: MEWNWVFLFLLSVTAEVHSQVQLQQSGAELAKPGSSVKISCKASGYTFTSYYISWIKQTTGQGLKYIGFINPGSGHTNYNEKFKGKATLTVDKSSSTAFMQLSSLTPDDSAIYYCARGAGGFLRIITKFDYWGQGVMVTVSSAQTTAPSVYPLAPGCGDTTSSTVTLGCLVKGYFPEPVTVTWNSGALSSDVHTFPAVLQSGLYTLTSSVTSSTWPSQTVTCNVAHPASSTKVDKKVERRNGGIGHKCPTCPTCHKCPVPELLGGPSVFIFPPKPKDILLISQNAKVTCVVVDVSEEEPDVQFSWFVNNVEVHTAQTQPREEQYNSTFRVVSALPIQHQDWMSGKEFKCKVNNKALPSPIEKTISKPKGLVRKPQVYVMGPPTEQLTEQTVSLTCLTSGFLPNDIGVEWTSNGHIEKNYKNTEPVMDSDGSFFMYSKLNVERSRWDSRAPFVCSVVHEGLHNHHVEKSISRPPGK light: METDRLLLWVLLLWVPGSTGDTVLTQSPALAVSLGQRVTISCRASKSVSTYIHWYQQRSGQQPKLLIYSASNLESGVPSRFSGSGSGTDFTLTIDPVEPDDIANYYCQQINELPYTFGAGTKLELKRADAAPTVSIFPPSTEQLATGGASVVCLMNNFYPRDISVKWKIDGTERRDGVLDSVTDQDSKDSTYSMSSTLSLTKADYESHNLYTCEVVHKTSSSPVVKSFNRNEC	lost binding activity	EC1, EC2	specifically binding to human GPR20
